Consider three substances from PMC7795666.

Read-outs that look alike come from different tables or passages of the source.

Experiment [1] concerns the target F-actin (chicken skeletal actin) (chicken) (UniProt P68139).
The target of experiment [2] is pyrene-labeled F-actin (chicken skeletal actin) (chicken) (UniProt P68139). Briefly: double-mixing stopped-flow (pyrene-actin fluorescence quench); weak-to-strong transition, single turnover: 2 µM myosin mixed with sub-equimolar ATP (1.8 µM), aged 3 s, then mixed with 20 µM pyrene-actin; double exponential fits; 20 °C.
Experiment [3] has the same target. The experiment is described as above. This is another data set of the same source.
Experiment [4] has the same target. Briefly: stopped-flow (pyrene-actin fluorescence amplitude); multiple turnover: 2 µM myosin and 15 µM pyrene-actin mixed with 20 µM ATP; signal normalised to 100% of myosin bound to actin without nucleotide; fraction strongly bound from the change in total amplitude.
Experiment [5] has the same target. Described as above. This is another data set of the same source.
The target is the same in experiment [6]. In words: stopped-flow transient kinetics (pyrene-actin fluorescence); no nucleotide; k'+A from linear fits of kobs; k'-A from mixing 1 µM pyrene-actomyosin complex with excess unlabeled F-actin; 1/K'A calculated as k'-A/k'+A; 20 °C, 20 mM MOPS, 100 mM KCl, 5 mM MgCl2, 1 mM DTT, pH 7.0.
Experiment [7] shares this target. Briefly: stopped-flow transient kinetics (pyrene-actin fluorescence); with ADP (ADP-myosin); k'+DA from linear dependence of kobs on pyrene-actin concentration; k'-DA from 1 µM pyrA.M pre-incubated with excess ADP mixed with excess unlabeled F-actin; 1/K'DA calculated as k'-DA/k'+DA; 20 °C, 20 mM MOPS, 100 mM KCl, 5 mM MgCl2, 1 mM DTT, pH 7.0.
Experiment [8] has as its target F-actin (chicken skeletal actin) (chicken) (UniProt P68139). Briefly: double-mixing stopped-flow, actin-activated Pi release (MDCC-PBP fluorescence); M.D.Pi state; multiple turnover: 2 µM myosin mixed with 200 µM ATP, aged 0.1 s, then mixed with increasing F-actin in excess ADP, 5 µM MDCC-PBP; hyperbolic fit kobs = k'+4[actin]/(1/K'DPA+[actin]); 20 °C, 20 mM MOPS, 100 mM KCl, 5 mM MgCl2, 1 mM DTT, pH 7.0.

Take “M765^GGG-2R, D. discoideum myosin-2 motor domain (amino acids 1-765) with the two W-loop threonines replaced by three glycines, fused to two alpha-actinin repeats (from UniProt P08799 1-765) (domain or fragment)”: in experiment [1], the Kapp of the actin-activated steady-state ATPase (F-actin concentration at kcat/2), NADH-coupled assay is 54 µM and the kcat/Kapp (catalytic efficiency) of the actin-activated steady-state ATPase turned out to be 140000 M⁻¹ s⁻¹. In experiment [2], this substance gave a k'weak-strong (observed rate of the weak-to-strong actin-binding transition) of 2.6 s⁻¹. This substance also showed a k'weak-strong (observed rate of the weak-to-strong actin-binding transition) in experiment [3] of 2.3 s⁻¹. Also, the percent strongly actin-bound with ATP (experimental duty ratio) in experiment [4] stood at 35%. For the same substance, the percent strongly actin-bound with ATP (experimental duty ratio) in experiment [5] came out at 45%. Further, in experiment [6], the Kd (commonly the free concentration of one partner at which half of the binding sites on the other are occupied at equilibrium, for simple one-to-one binding) was 11 nM; the koff (in general, the first-order rate constant of dissociation) is 0.005 s⁻¹; the kon (as a rule, the second-order rate constant of association) is 610000 M⁻¹ s⁻¹. Besides, in experiment [7], the Kd was 24 nM, the koff is 0.005 s⁻¹ and the kon is 180000 M⁻¹ s⁻¹. In experiment [8], the Kd turned out to be 18000 nM and the k'+4K'DPA (second order rate constant of M.D.Pi binding to actin) was determined as 790000 M⁻¹ s⁻¹.
For “M765^AA-2R, D. discoideum myosin-2 motor domain (amino acids 1-765) with T647A, T648A fused to two alpha-actinin repeats (from UniProt P08799 1-765) (domain or fragment)”, in experiment [1], the Kapp of the actin-activated steady-state ATPase (F-actin concentration at kcat/2), NADH-coupled assay was more than 100 µM and the kcat/Kapp (catalytic efficiency) of the actin-activated steady-state ATPase is less than 30000 M⁻¹ s⁻¹. Also, in experiment [6], the Kd is 10 nM, the koff is 0.004 s⁻¹ and the kon is 610000 M⁻¹ s⁻¹.
Take “M765^wt-2R, D. discoideum myosin-2 motor domain (amino acids 1-765) fused to an artificial lever of two alpha-actinin repeats (from UniProt P08799 1-765) (domain or fragment)”: in experiment [1], the Kapp of the actin-activated steady-state ATPase (F-actin concentration at kcat/2), NADH-coupled assay is more than 100 µM and the kcat/Kapp (catalytic efficiency) of the actin-activated steady-state ATPase is less than 30000 M⁻¹ s⁻¹. In experiment [2], the k'weak-strong (observed rate of the weak-to-strong actin-binding transition) worked out at 1 s⁻¹. In addition, in experiment [6], the Kd was 5.7 nM, the koff was 0.003 s⁻¹ and the kon was 640000 M⁻¹ s⁻¹. In experiment [7], the Kd is 63 nM, the koff is 0.006 s⁻¹ and the kon was 120000 M⁻¹ s⁻¹. In experiment [8], this substance came in with a Kd of 94000 nM and a k'+4K'DPA (second order rate constant of M.D.Pi binding to actin) of 40000 M⁻¹ s⁻¹.
